Results: US20130295102A1 (Novartis, published 2013)

Legend:
[1] = molecular target: T1, Human Factor P (human, UniProt P27918 29-469); test: SET, solution equilibrium titration
T1 construct: Bought protein (Complement Technology cat# A139) in SET and Biacore; Factor P of human serum in the functional assays; also called FP; human FP
Experimental: (§1) In SET, a constant amount of antibody is incubated with different concentrations of antigen until equilibrium is reached. The concentration of free antibody in the equilibrated solution is determined by applying the solution on an antigen coated MSD™ plate (Meso Scale Discovery™) followed by incubation with an ECL-labeled secondary antibody and measurement of signal intensity. At low antigen concentrations, a strong signal is achieved (high concentration of free antibody which binds to the antigen on the plate) whereas for high antigen concentration, the antibody is completely antigen-captured, resulting in a low signal. If a sufficient number of antigen concentrations in a matching range are available, the titration curve allows for a reasonable determination of the affinity, using the appropriate fit model. […] The constant concentration of antibody applied in the assay should be in the range of, or below, the KD (Table 4).
(§2) Human Factor P (Complement Technology cat#: A139) and Cyno Factor P purified from cyno serum (protocol adapted from Nakano, et al., (1986) J Immunol Methods 90:77-83) were coated on standard binding MSD plates (Meso-Scale Discovery, 384-well: MSD cat#: L21XA, 96-well: MSD cat#: L15XA) at 0.2-0.3 μg/ml in 25 μl PBS and incubated overnight at 4° C. Factor P inhibitors were diluted to a fixed concentration (1 pM or 10 pM) in incubation buffer (PBS with 2% BSA (Sigma cat#: A4503) and 1% Tween20 and 1% Triton-X (Sigma cat#: 234729)), and added to a serial dilution of Factor P (human or cyno) in incubation buffer. Samples were allowed to reach equilibrium by incubation at RT overnight. Plates were washed 3× in wash buffer (PBS with 0.05% Tween20), and blocked with 100 μl incubation buffer at RT for 2 hrs. Plates were washed 3× in wash buffer. Sample containing Factor P inhibitors and Factor P titration were added to the plate (25 μl), and incubated at RT for 15 min. Plates were washed 3× in wash buffer. 25 μl detection antibody was added (Anti-Human (Goat) Sulfo-TAG, 1:1000 in incubation buffer, MSD cat#: R32AJ-1), and incubated at RT for 60 min. Plates were washed 3× in wash buffer, and 50 μl of 1×MSD Read buffer T was added (with surfactant, MSD cat#: R92TC-1). Plates were read on a MSD Spector Imager 6000.

[2] = molecular target: T2, Cynomolgus Factor P (cynomolgus); test: SET, solution equilibrium titration
T2 construct: Purified from cynomolgus serum for SET/Biacore; Factor P of cynomolgus serum in the functional assays; also called Cyno Factor P; cyno FP
Experimental: as §1, §2

[3] = molecular target: T1, Human Factor P; test: Biacore SPR, captured Factor P
[4] = molecular target: T2, Cynomolgus Factor P; test: Biacore SPR, captured Factor P
[5] = molecular target: T1, Human Factor P; test: cell-based or functional assay
[6] = molecular target: T2, Cynomolgus Factor P; test: cell-based or functional assay

T1 sequence (P27918 29-469 limits assumed): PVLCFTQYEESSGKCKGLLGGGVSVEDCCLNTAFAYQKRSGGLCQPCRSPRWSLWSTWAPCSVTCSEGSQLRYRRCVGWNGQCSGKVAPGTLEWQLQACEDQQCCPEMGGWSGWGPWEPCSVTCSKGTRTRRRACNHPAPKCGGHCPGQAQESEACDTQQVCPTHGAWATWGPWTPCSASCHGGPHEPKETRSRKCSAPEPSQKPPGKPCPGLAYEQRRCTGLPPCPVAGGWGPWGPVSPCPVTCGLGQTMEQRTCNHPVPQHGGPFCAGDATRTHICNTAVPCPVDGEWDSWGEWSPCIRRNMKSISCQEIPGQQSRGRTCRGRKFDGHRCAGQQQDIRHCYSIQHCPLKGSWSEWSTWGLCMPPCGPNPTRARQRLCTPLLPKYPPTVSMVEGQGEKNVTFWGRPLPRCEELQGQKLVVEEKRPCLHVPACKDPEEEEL

B1: NVS964 (Fab, V domains shown)
VH: EVQLVQSGAEVKKPGASVKVSCKASGYTFTSHYMHWVRQAPGQGLEWMGKINADLGDTNYAQKFQGRVTMTRDTSISTAYMELSSLRSEDTAVYYCARDGIEHGGHYYWGYLFDIWGQGTLVTVSS
VL: SYELTQPPSVSVAPGQTARISCSGDSIREYYVHWYQQKPGQAPVLVIGDDTNRPSGIPERFSGSNSGNTATLTISGTQAEDEADYYCAAWDFSPAIVFGGGTKLTVLG
notes: Disulfide-bridged Fab; also called Fab NVS964
[1]
  Kd: 0.02 nM
[2]
  Kd: 0.19 nM
[3]
  Kd: 0.035 nM
  koff: 4e-05 s⁻¹
  kon: 1e+06 M⁻¹ s⁻¹
[4]
  Kd: 0.16 nM
  koff: 0.0002 s⁻¹
  kon: 1e+06 M⁻¹ s⁻¹
[5]
  Hemolytic assay IC50 (nM), 10% serum: 9.26 nM
  Inhibition of C3a generation, 20% human serum: 42.2 nM
  Zymosan-C3b IC50 (nM), 10% serum: 1.54 nM
[6]
  Hemolytic assay IC50 (nM), 10% serum: 13.4 nM
  Zymosan-C3b IC50 (nM), 10% serum: 6.59 nM

B2: NVS967 (Fab, V domains shown)
VH: EVQLVQSGAEVKKPGASVKVSCKASGYTFTSHYMHWVRQAPGQGLEWMGNINPVDGGTEYAQKFQGRVTMTRDTSISTAYMELSSLRSEDTAVYYCARDGIEHGGHYYWGYLFDIWGQGTLVTVSS
VL: SYVLTQPPSVSVAPGKTARISCSGDSIREYYVHWYQQKPGQAPVLVIGDDTNRPSGIPERFSGSNSGNTATLTISRAQAGDEADYYCAAWDFSPAIVFGGGTKLTVLG
notes: Disulfide-bridged Fab; also called Fab NVS967
[1]
  Kd: 0.04 nM
[2]
  Kd: 0.28 nM
[3]
  Kd: 0.06 nM
  koff: 9e-05 s⁻¹
  kon: 1e+06 M⁻¹ s⁻¹
[4]
  Kd: 0.315 nM
  koff: 0.0006 s⁻¹
  kon: 1e+06 M⁻¹ s⁻¹
[5]
  Hemolytic assay IC50 (nM), 10% serum: 9.61 nM
  Inhibition of C3a generation, 20% human serum: 43.5 nM
  Zymosan-C3b IC50 (nM), 10% serum: 2.53 nM
[6]
  Hemolytic assay IC50 (nM), 10% serum: 14 nM
  Zymosan-C3b IC50 (nM), 10% serum: 5.92 nM

B3: NVS965-S (Fab, V domains shown)
VH: EVQLVQSGAEVKKPGSSVKVSCKASGGTFSSYAISWVRQAPGQGLEWMGRIIPIFGTANYAQKFQGRVTITADESTSTAYMELSSLRSEDTAVYYCARHGGYSFDSWGQGTLVTVSS
VL: SYVLTQPPSVSVAPGKTARISCSGDNLGSKYVDWYQQKPGQAPVLVIYSDNNRPSGIPERFSGSNSGNTATLTISGTQAMDEADYYCATYDSSPRTEVFGGGTKLTVLG
notes: NVS965 with heavy chain N30 replaced with serine
[1]
  Kd: 0.051 nM
[2]
  Kd: 0.036 nM
[3]
  Kd: 0.027 nM
  koff: 9.9e-05 s⁻¹
  kon: 3.69e+06 M⁻¹ s⁻¹
[4]
  Kd: 0.06 nM
  koff: 0.000163 s⁻¹
  kon: 2.71e+06 M⁻¹ s⁻¹
[5]
  Hemolytic assay IC50 (nM), 10% serum: 7.89 nM
  MAC Deposition, 20% Serum EC50: 7.32 nM
  Zymosan-C3b IC50 (nM), 10% serum: 1.39 nM
[6]
  Hemolytic assay IC50 (nM), 10% serum: 12 nM
  MAC Deposition, 20% Serum EC50: 8.12 nM
  Zymosan-C3b IC50 (nM), 10% serum: 1.57 nM

B4: NVS965-T (Fab, V domains shown)
VH: EVQLVQSGAEVKKPGSSVKVSCKASGGTFTSYAISWVRQAPGQGLEWMGRIIPIFGTANYAQKFQGRVTITADESTSTAYMELSSLRSEDTAVYYCARHGGYSFDSWGQGTLVTVSS
VL: SYVLTQPPSVSVAPGKTARISCSGDNLGSKYVDWYQQKPGQAPVLVIYSDNNRPSGIPERFSGSNSGNTATLTISGTQAMDEADYYCATYDSSPRTEVFGGGTKLTVLG
notes: NVS965 with heavy chain N30 replaced with threonine
[1]
  Kd: 0.052 nM
[2]
  Kd: 0.044 nM
[3]
  Kd: 0.0514 nM
  koff: 0.000103 s⁻¹
  kon: 2.37e+06 M⁻¹ s⁻¹
[4]
  Kd: 0.0746 nM
  koff: 0.000151 s⁻¹
  kon: 2.17e+06 M⁻¹ s⁻¹
[5]
  Hemolytic assay IC50 (nM), 10% serum: 7.15 nM
  MAC Deposition, 20% Serum EC50: 13.8 nM
  Zymosan-C3b IC50 (nM), 10% serum: 0.77 nM
[6]
  Hemolytic assay IC50 (nM), 10% serum: 12.5 nM
  MAC Deposition, 20% Serum EC50: 11 nM
  Zymosan-C3b IC50 (nM), 10% serum: 1.91 nM

B5: NVS963 (Fab, V domains shown)
VH: EVQLVQSGAEVKKPGSSVKVSCKASGGTFSSYAISWVRQAPGQGLEWMGPINPYYGDAIYAQKFQGRVTITADESTSTAYMELSSLRSEDTAVYYCARYYSDYMDYWGQGTLVTVSS
VL: QSVLTQPPSVSGAPGQRVTISCTGSSSNIGAGYDVHWYQQLPGTAPKLLIHDNSHRPSGVPDRFSGSKSGTSASLAITGLQSEDEADYYCASYDESAHSVFGGGTKLTVLG
notes: Disulfide-bridged Fab; also called Fab NVS963
[1]
  Kd: 0.055 nM
[2]
  Kd: 0.115 nM
[3]
  Kd: 0.09 nM
  koff: 0.0001 s⁻¹
  kon: 1e+06 M⁻¹ s⁻¹
[4]
  Kd: 0.17 nM
  koff: 0.0002 s⁻¹
  kon: 1e+06 M⁻¹ s⁻¹
[5]
  Hemolytic assay IC50 (nM), 10% serum: 10.1 nM
  Inhibition of C3a generation, 20% human serum: 65.1 nM
  Zymosan-C3b IC50 (nM), 10% serum: 2.34 nM
[6]
  Hemolytic assay IC50 (nM), 10% serum: 14.5 nM
  Zymosan-C3b IC50 (nM), 10% serum: 9.75 nM

B6: NVS966 (Fab, V domains shown)
VH: EVQLVQSGAEVKKPGESLKISCKGSGYSFTNYWIGWVRQMPGKGLEWMGRIDPGESLTNYAPSFQGQVTISADKSISTAYLQWSSLKASDTAMYYCARTGVADVDMPFAHWGQGTLVTVSS
VL: SYVLTQPPSVSVAPGKTARISCSGDNLGSYYVNWYQQKPGQAPVLVIYGDSERPSGIPERFSGSNSGNTATLTISRAQAGDEADYYCGSWDITSFVFGGGTKLTVLG
notes: Disulfide-bridged Fab; also called Fab NVS966
[1]
  Kd: 0.07 nM
[2]
  Kd: 0.04 nM
[3]
  Kd: 0.16 nM
  koff: 0.0003 s⁻¹
  kon: 2e+06 M⁻¹ s⁻¹
[4]
  Kd: 0.21 nM
  koff: 0.0002 s⁻¹
  kon: 1e+06 M⁻¹ s⁻¹
[5]
  Hemolytic assay IC50 (nM), 10% serum: 7.15 nM
  Inhibition of C3a generation, 20% human serum: 41.1 nM
  Zymosan-C3b IC50 (nM), 10% serum: 1.66 nM
[6]
  Hemolytic assay IC50 (nM), 10% serum: 13 nM
  Zymosan-C3b IC50 (nM), 10% serum: 6.62 nM
